System: MS2 coat protein
Experiment: apparent KD of MS2 coat protein; designed switch direction (-1 OFF switch, 1 ON switch): 1; higher = weaker reporter binding
In short: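 RNA switches sharing common flanks were transcribed by stalled E. coli RNA polymerase on Illumina chips. A doubling series of SNAP-549-labelled MS2 coat protein, from 0.7 or 1.5 nM to 3 µM, was applied in Tris-HCl pH 7.5 buffer with KCl, MgCl2, BSA, DTT, tRNA and Tween-20. Each step lasted 0.8–1.5 h at the bottom of the series and 10–20 min at the top. Normalised cluster fluorescence was curve-fitted, giving apparent KD as the per-design median over clusters.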

[1] = input ligand: microRNA oligo, concentration not stated
[2] = Eterna round: R95, input ligand: FMN 200 uM
[3] = Eterna round: R95, input ligand: microRNA oligo, concentration not stated
[4] = Eterna round: R95, input ligand: none

Sequence	apparent KD of MS2 coat protein (input ligand: FMN 200 uM) [nM]	apparent KD of MS2 coat protein [1] [nM]	apparent KD of MS2 coat protein (input ligand: none) [nM]	apparent KD of MS2 coat protein [2] [nM]	apparent KD of MS2 coat protein [3] [nM]	apparent KD of MS2 coat protein [4] [nM]
UUGUUUUGAAAUUAACAUGAGGAUCACCCAUGUCUUGACACAGAGGAUAUACAUGUUUGUUUGUAGUAGAAGGCUGUUUAUUGU [JR_SSNG3_Sub097] (Eterna round: R96, puzzle: Same State NG 3)	57	98	135	–	–	–
GUAAAGAAAUAAGGAUAUUGAAUACAUAUGUUUAACAUGAGGAUCACCCAUGUGGGUUGCGGUAUCGAGAAGGUAUAAUAAAAG [Mat - Same State NG 2 - JL mod - D8] (Eterna round: R96, puzzle: Same State NG 2)	162	171	168	–	–	–
CGUUCUUACUCGGUACGGUGAGUAGAGGAACAUGAGGAUCACCCAUGUAUGAGCUUUUUGCUCGUGAUUAACAGUAG [JR_SHM208a_Sub014] (puzzle: Sensor for hsa-mir-208a)	–	–	–	58	63.3	105
GGAGGGAGGGCGCAGGAUAUCGAUAAUGACACAUGAGGAUCACCCAUGUUUGGUAUUAGAAGGAACGAGAAGGGUGAGAGGAGGG [red_knee_arm] (puzzle: Same State 2)	–	–	–	36.1	35.1	53.2
AUUAAACAUGAGGAUCACCCAUGUCAACAAAGUCGAGGAUAUGGGCAAAUAAAAUAAGAACCAGAAGGCGUAUAAU [salish99_ss1_r3_077] (puzzle: Same State 1)	–	–	–	75.9	363	636
CAGCUCGUGUGAGGAUAUGCCGCCGUUUCGGCUGCAGAAGGUGCUACGUUACAUGAGGAUCACCCAUGUCUCUGUUGUUUCGUC [salish99_SSNG1_r04_962] (Eterna round: R96, puzzle: Same State NG 1)	28.6	19.1	31.8	–	–	–
GUGGUCAGACAUGAGGAUCACCCAUGUGGAAUAAAUAAGGACUAGGAUAUGUAAUAUAGGAUAUAACAGAAGGAGUGGUUGGUG (Eterna round: R96, puzzle: Same State NG 3)	66.8	42.1	60.2	–	–	–
GGAUGAUUAAUAGGAUAUUAGUUGUAAAAUGUUUAAGAAGGAUUAAUGAUUUAAACGACCAGUUACAUGAGGAUCACCCAUGUU [JR_SSNG1_Sub093] (Eterna round: R96, puzzle: Same State NG 1)	–	20.6	–	–	–	–
UGGAGACAUCAAGGAUAUGCUACCGUUUCGGUAGCAGAAGGUGAUCACAUGAGGAUCACCCAUGUAUGCAUGCGUGAGCGUGCU [JL SSNG1 3.53] (Eterna round: R96, puzzle: Same State NG 1)	779	32.7	35.4	–	–	–
AGAUGUUAAUUAGGAUAUGGUCACAUGAGGAUCACCCAUGUAACGAUGAUACGAUGUGGUCAAGACUAGAAGGGAUCGCUAACA [SameState NG2 #72] (Eterna round: R96, puzzle: Same State NG 2)	204	86.4	155	–	–	–
UAUGACUUACAAGGAUAUUAAUGACAUGAGGAUCACCCAUGUGGCUGUGUGUGUUAGAUAAGCUUUAAGAAGGUGUGCGUGUCU [JR_SSNG2_Sub096] (Eterna round: R96, puzzle: Same State NG 2)	361	288	386	–	–	–
GGAGCCGGCACUGAGGAUAUUCAUAUUAAAACAUGAGGAUCACCCAUGUAGGCCAGAAGGCCUUGGGAGAAGGCGGGUCGGCCCG [Bibimoar - 3] (Eterna round: R96, puzzle: Same State 2)	22.1	222	258	–	–	–
UAUUAAUCUGUAGGAUAUCUAGGAUAUGGACGAGGAUCACCCGAGCAGCAUCAGCGCACCAGAGGAGAGAAGGACGCUCUGGUG [pwkr ssNG2 2F5 2FMN.25] (Eterna round: R96, puzzle: Same State NG 2)	332	93.7	469	–	–	–
UGUUGUAUUACAGGAUAUCUAUUAUUUUUAUUUAGAGAAGGGUAUUCACAUGAGGAUCACCCAUGUAUAUACGAGGAAGUUGUG [JMF's solution 6] (Eterna round: R96, puzzle: Same State NG 1)	–	42.7	–	–	–	–
GCUCCGCAAUACUUUCACAUGAGGAUCACCCAUGUUCACGUUAAGGAUAUCUAUUGUGAGACAGUAGAGAAGGUAGCGAGCGAC [Eternabot solution 11] (Eterna round: R96, puzzle: Same State NG 3)	25.7	15.2	24.2	–	–	–
CUUUUUCACUAUACAUGAGGAUCACCCAUGUUAUCAUCAUGAGAGGAUAUCGUAAUAGGAUUUUUCGAGAAGGCUCUAAAGUAU [JR_SSNG3_Sub079] (Eterna round: R96, puzzle: Same State NG 3)	26.3	43	45	–	–	–

Sequence	apparent KD of MS2 coat protein (input ligand: FMN 200 uM) [nM]	apparent KD of MS2 coat protein [1] [nM]	apparent KD of MS2 coat protein (input ligand: none) [nM]	apparent KD of MS2 coat protein [2] [nM]	apparent KD of MS2 coat protein [3] [nM]	apparent KD of MS2 coat protein [4] [nM]
ACGUCGAGAUCACAGGAUAUACUCACAUCUACAUGAGGAUCACCCAUGUAGCGGUAUUCCGGUGCGUAGAAGGGUGAUCGACGAC [Same State 2 - Mod of Artece v.5] (puzzle: Same State 2)	–	–	–	14.6	9.7	11.9
CGUCGUUUGAUAGGAUAUCGCUUUACAUGAGGAUCACCCAUGUUUCCCACGCUGGUUUUUCUUUCCGAGAAGGAUUCUGAUGUU [salish99_SSNG02_r04_029] (Eterna round: R96, puzzle: Same State NG 2)	44.6	31.4	40.6	–	–	–
UGGUACAUGGGAGGAUAUGGGUUGAUGACAUGAGGAUCACCCAUGUUAAAUAUGCCGAGAGGCAACUAGAAGGCCCAUGUACCU [JL SSNG1 3.99] (Eterna round: R96, puzzle: Same State NG 2)	62.7	1320	1080	–	–	–
UUAGUCAUGUAAGGAUAUGCAGCCGAAACGGCUGCAGAAGGUACUAUAAUUACAUGAGGAUCACCCAUGUUAUAAAAUAAAUAU [Mat - Same State NG 1 - JL mod - D63] (Eterna round: R96, puzzle: Same State NG 1)	22.9	25.6	48	–	–	–
AGGAAACAUGAGGAUCACCCAUGUAAGAUAUACACAGGAUAUGCGAAAAGAAACAAAGAAGCAGAAGGGUGGAAAA [75%, Ex sub1, 11] (Eterna round: R96, puzzle: Same State 1)	16.6	22.7	43.5	–	–	–
CAGUGCUGUUGAGAGGAUAUGCGGCGACGGACAUGAGGAUCACCCAUGUUAGCGACAGCGUUGCGGCAGAAGGCUCUGCCCGCUG [Soteed Omei mod 50] (puzzle: Same State 2)	–	–	–	–	15.3	–
AACCCGAAGGGAGGAUAUGGCACCUUAUUGGUGCCAGAAGGUCCUCACAUGAGGAUCACCCAUGUGGGCCGGUCGAAAGACCGG [Fiskers NG1ss - 12] (Eterna round: R96, puzzle: Same State NG 1)	532	407	500	–	–	–
GUCGGACCGGAAGGAUAUAACGACUGGUGUUUUCACAUGAGGAUCACCCAUGUAUCUCUACCGUGUUAGAAGGUUCGGAGGAAU [Eternabot solution 49] (Eterna round: R96, puzzle: Same State NG 2)	14.8	15.2	20.4	–	–	–
ACAUGAGAGUGAGGAUAUAUUGUACCUACAUGUGACAUGAGGAUCACCCAUGUGGUAAGUAUGACAUAGAAGGCACAGAUAUGU [Equivalance 80 - Jieux - Same State NG 2] (Eterna round: R96, puzzle: Same State NG 2)	35.6	45.2	70.9	–	–	–
GGUAUGGACACAGGAUAUGCUUACGAAACGUAAGCAGAAGGGUGAACAUGAGGAUCACCCAUGUACGUACCAGGGCGUGAGCCC [JL SSNG1 1.76] (Eterna round: R96, puzzle: Same State NG 1)	440	157	92.4	–	–	–
AAUUAUUAACAUGAGGAUCACCCAUGUAUUUUUUGCUCGUCAUGUAUUAUUAUUAUUAUUAUUAUUAUUAUUAUUAA [my first RNA] (puzzle: Sensor for hsa-mir-208a version 2)	–	–	–	26.8	17.1	37.8
UCUGCAAGAACAGGAUAUGGGUUCAGAGCGGGAGUGCGCUUUGAUACAUGAGGAUCACCCAUGUCCCAGAAGGGUUCAAGCGGC [Maedraedbi] (Eterna round: R96, puzzle: Same State NG 2)	32.9	35.2	188	–	–	–
AACAGUCGGCGAGGAUAUGGACGUACGAACUUACCCGUGCGGCUCACAUGAGGAUCACCCAUGUUCUAGAAGGCGCCACUGAAA [Atbeon] (Eterna round: R96, puzzle: Same State NG 2)	12.2	63.4	88.8	–	–	–
GUGGCACAUGAGGAUCACCCAUGUGGGUAGAACAUAGGAUAUCACCAACAAAAUACCCGGUGAGAAGGAUGAUGCC [Esanesdi] (puzzle: Same State 1)	–	–	–	118	121	161
GGUAUCGGCACAGGAUAUGCUAUCCUUUGGGUAGCAGAAGGGUGGAACAUGAGGAUCACCCAUGUGGUGCCAGGGCGUGAGCCC [JL SSNG1 1.88] (Eterna round: R96, puzzle: Same State NG 1)	586	125	909	–	–	–

Reference: the supplement of paper PMC9170038
